The results in this text go back to patent US6639060.

This experiment has as its target human erbB-3 protein, gp180^erbB-3 (human) (UniProt P21860). Kind of experiment: cell-based or functional assay.
Chain of UniProt P21860 (P21860 20-1342): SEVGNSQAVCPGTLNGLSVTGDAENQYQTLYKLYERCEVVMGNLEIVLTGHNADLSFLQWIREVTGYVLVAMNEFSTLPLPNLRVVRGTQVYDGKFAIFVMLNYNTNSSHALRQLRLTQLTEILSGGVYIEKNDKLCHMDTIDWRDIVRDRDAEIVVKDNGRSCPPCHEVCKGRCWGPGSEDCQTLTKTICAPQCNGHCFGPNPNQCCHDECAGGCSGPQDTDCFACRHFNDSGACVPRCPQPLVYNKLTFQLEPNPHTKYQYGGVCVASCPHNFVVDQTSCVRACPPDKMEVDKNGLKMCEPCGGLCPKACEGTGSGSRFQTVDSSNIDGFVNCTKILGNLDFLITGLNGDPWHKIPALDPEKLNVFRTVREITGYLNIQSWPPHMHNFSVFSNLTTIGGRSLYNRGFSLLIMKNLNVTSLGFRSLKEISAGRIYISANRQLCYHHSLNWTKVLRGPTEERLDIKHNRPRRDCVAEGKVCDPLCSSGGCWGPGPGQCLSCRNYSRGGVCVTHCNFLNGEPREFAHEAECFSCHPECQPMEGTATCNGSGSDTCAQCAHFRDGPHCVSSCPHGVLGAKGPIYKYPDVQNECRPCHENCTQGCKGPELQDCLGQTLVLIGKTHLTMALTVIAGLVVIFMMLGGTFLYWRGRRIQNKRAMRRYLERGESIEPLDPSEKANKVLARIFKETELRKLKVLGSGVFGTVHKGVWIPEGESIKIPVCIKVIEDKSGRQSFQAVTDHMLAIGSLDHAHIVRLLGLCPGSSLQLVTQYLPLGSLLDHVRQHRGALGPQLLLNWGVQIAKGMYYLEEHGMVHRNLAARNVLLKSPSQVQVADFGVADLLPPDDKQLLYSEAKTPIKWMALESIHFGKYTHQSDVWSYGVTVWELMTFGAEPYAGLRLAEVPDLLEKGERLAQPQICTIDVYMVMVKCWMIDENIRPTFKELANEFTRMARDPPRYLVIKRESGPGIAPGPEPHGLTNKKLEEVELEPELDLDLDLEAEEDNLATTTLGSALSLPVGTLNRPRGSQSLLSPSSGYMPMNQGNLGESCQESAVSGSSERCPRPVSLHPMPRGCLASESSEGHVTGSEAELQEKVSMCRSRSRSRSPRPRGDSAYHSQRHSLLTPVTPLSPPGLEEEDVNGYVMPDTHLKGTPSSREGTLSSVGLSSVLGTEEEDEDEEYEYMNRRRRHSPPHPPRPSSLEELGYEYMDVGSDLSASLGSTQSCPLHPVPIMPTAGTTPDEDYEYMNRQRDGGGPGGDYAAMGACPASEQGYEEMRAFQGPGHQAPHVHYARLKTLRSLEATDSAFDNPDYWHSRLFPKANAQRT

With EGF (epidermal growth factor) (ligand), the soft agar colonies/10^4 cells, + EGF 20 ng/ml (- EGF: 97) (colonies/10^4 cells) is 94.
